Measured values reported in paper PMC6872814, “Functional interactions between nitrite reductase and nitric oxide reductase from Paracoccus denitrificans” (Scientific Reports, 2019).

Tests used:
[1] = molecular target: the molecule itself; assay: fluorescence correlation spectroscopy (photon count-rate per molecule, CPM); increasing concentrations of cd1NiR-STAR 635 alone; CPM fitted with the ligand-binding model (Eq. 2); apparent; monomer to dimer; points above 15 nM not in the fit
[2] = molecular target: the molecule itself; assay: fluorescence correlation spectroscopy (photon count-rate per molecule, CPM); increasing concentrations of cd1NiR-STAR 635 with 40 nM unlabelled cNOR in the solution; CPM fitted with the ligand-binding model (Eq. 2); apparent; monomer to dimer

B1: cytochrome cd1 nitrite reductase (cd1NiR) from Paracoccus pantotrophus, labelled with Abberior STAR 635 (enzyme, UniProt P72181 30-596, looked up)
chain: QEQVAPPKDPAAALEDHKTRTDNRYEPSLDNLAQQDVAAPGAPEGVSALSDAQYNEANKIYFERCAGCHGVLRKGATGKALTPDLTRDLGFDYLQSFITYGSPAGMPNWGTSGELSAEQVDLMANYLLLDPAAPPEFGMKEMRESWKVHVAPEDRPTQQENDWDLENLFSVTLRDAGQIALIDGATYEIKSVLDTGYAVHISRLSASGRYLFVIGRDGKVNMIDLWMKEPTTVAEIKIGSEARSIETSKMEGWEDKYAIAGAYWPPQYVIMDGETLEPKKIQSTRGMTYDEQEYHPEPRVAAILASHYRPEFIVNVKETGKILLVDYTDLDNLKTTEISAERFLHDGGLDGSHRYFITAANARNKLVVIDTKEGKLVAIEDTGGQTPHPGRGANFVHPTFGPVWATSHMGDDSVALIGTDPEGHPDNAWKILDSFPALGGGSLFIKTHPNSQYLYVDATLNPEAEISGSVAVFDIKAMTGDGSDPEFKTLPIAEWAGITEGQPRVVQGEFNKDGTEVWFSVWNGKDQESALVVVDDKTLELKHVIKDERLVTPTGKFNVYNTMTDTY
modifications: Abberior STAR 635 (amino-reactive dye, 5-fold molar excess; sites not stated); heme c and heme d1
notes: cytochrome cd1 nitrite reductase (cd1NiR), Paracoccus pantotrophus (G6), soluble periplasmic protein; 97% identical to the P. denitrificans enzyme; STAR 635-labelled in the fluorescence experiments; the activity assays (functional rows) used the same protein unlabelled; Written as the monomer chain; also called cd1NiR-STAR 635; cd1NIR-STAR 635
Kd [1]: 3.5 ± 0.1 nM
Kd [2]: 5.3 ± 0.2 nM
